The results in this text go back to US20230190875A1 (ACCELERON PHARMA, published 2023).

To fix the notation:
B1: ActRIIB homodimer Fc fusion (Fc fusion, UniProt Q13705 20-134, looked up)
chain: GRGEAETRECIYYNANWELERTNQSGLERCEGEQDKRLHCYASWRNSSGTIELVKKGCWLDDFNCYDRQECVATEENPQVYFCCCEGNFCNERFTHLPEAGGPEVTYEPPPTAPT
notes: Comparator; also called homodimeric ActRIIB Fc fusion; homomeric ActRIIB-Fc; not shown: linker and Fc domain of the homodimer are not described

Holding throughout (assay): SPR (Biacore); Fc fusion captured by anti-Fc antibody, ligand injected
(In general: SPR reads the build-up and loss of mass on a sensor chip optically.)

The target of one assay is T1, activin A (UniProt P08476 311-426).
T1 sequence (looked up): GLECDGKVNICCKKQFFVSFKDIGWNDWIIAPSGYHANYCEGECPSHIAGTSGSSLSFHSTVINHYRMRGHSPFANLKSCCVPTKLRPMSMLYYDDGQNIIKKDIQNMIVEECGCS
How it is done:
(§1) A Biacore™-based binding assay was used to compare ligand binding selectivity of the single-arm ActRIIB heterodimer Fc fusion described above with that of ActRIIB homodimer Fc fusion. Single-arm ActRIIB […] Fc fusion and ActRIIB homodimer Fc fusion were independently captured onto the system using an anti-Fc antibody. Ligands were injected and allowed to flow over the captured receptor protein.

A further assay concerns the target T2, activin B (UniProt P09529 293-407).
T2 sequence (looked up): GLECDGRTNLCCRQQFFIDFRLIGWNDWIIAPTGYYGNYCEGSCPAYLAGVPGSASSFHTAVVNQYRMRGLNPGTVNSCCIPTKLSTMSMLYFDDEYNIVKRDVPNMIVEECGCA
How it is done: as §1

Another assay addresses T3, BMP6 (UniProt P22004 382-513, limits assumed).
T3 sequence (looked up): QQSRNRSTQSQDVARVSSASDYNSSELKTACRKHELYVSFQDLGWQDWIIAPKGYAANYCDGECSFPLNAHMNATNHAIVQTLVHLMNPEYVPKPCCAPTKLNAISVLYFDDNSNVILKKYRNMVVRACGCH
As to the method:
as §1

For assay [1], the target named is B1. As to the method:
as §1

In assay [2] the target is T4, ActRIIA homodimer Fc fusion (UniProt P27037 21-135).
T4 construct: Comparator; also called homodimeric ActRIIA Fc fusion; not shown: linker and Fc domain of the homodimer are not described
As to the method: A Biacore™-based binding assay was used to compare ligand binding selectivity of the single-arm ActRIIA heterodimer Fc fusions described above with that of an ActRIIA homodimer Fc fusion. The single-arm ActRIIA heterodimer Fc fusions and ActRIIA homodimer Fc fusions were independently captured onto the system using an anti-Fc antibody. Ligands were injected and allowed to flow over the captured receptor protein.

T4 sequence (P27037 21-135): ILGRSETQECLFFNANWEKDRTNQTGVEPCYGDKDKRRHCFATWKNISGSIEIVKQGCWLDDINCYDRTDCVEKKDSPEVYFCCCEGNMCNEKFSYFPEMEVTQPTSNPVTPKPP

For the molecule B1, the results for the Kd with activin A, in the assay with activin B and in the assay with BMP6 were 0.019 nM, 0.02 nM and 0.21 nM, respectively. Also, the koff (as a rule, a measure of how fast the partners let go of each other) with activin A worked out at 0.00023 s⁻¹; with activin B it was 0.0001 s⁻¹; with BMP6 it was 0.0068 s⁻¹. For the same molecule, the values for the kon with activin A, in the assay with activin B and in the assay with BMP6 were 1.2e+07 M⁻¹ s⁻¹, 5.1e+06 M⁻¹ s⁻¹ and 3.2e+07 M⁻¹ s⁻¹, respectively.

B2: GDF3 (ligand, UniProt Q9NR23 251-364, looked up)
chain: AAIPVPKLSCKNLCHRHQLFINFRDLGWHKWIIAPKGFMANYCHGECPFSLTISLNSSNYAFMQALMHAVDPEIPQAVCIPTKLSPISMLYQDNNDNVILRHYEDMVVDECGCG
notes: also called VGR2
As to B2, in assay [1], the Kd – broadly, the constant that tells how readily two partners part at equilibrium – came out at 1.5 nM; the koff amounted to 0.0022 s⁻¹; the kon (commonly the rate constant with which the complex forms) was 1.4e+06 M⁻¹ s⁻¹.

B3: BMP9 (ligand, UniProt Q9UK05 320-429, looked up)
chain: SAGAGSHCQKTSLRVNFEDIGWDSWIIAPKEYEAYECKGGCFFPLADDVTPTKHAIVQTLVHLKFPTKVGKACCVPTKLSPISVLYKDDMGVPTLKYHYEGMSVAECGCR
notes: also called GDF2
In assay [1], B3 returned a Kd of 0.078 nM, a koff of 0.0011 s⁻¹ and a kon of 1.4e+07 M⁻¹ s⁻¹.

B4: GDF11 (ligand, UniProt O95390 299-407, looked up)
chain: NLGLDCDEHSSESRCCRYPLTVDFEAFGWDWIIAPKRYKANYCSGQCEYMFMQKYPHTHLVQQANPRGSAGPCCTPTKMSPINMLYFNDKQQIIYGKIPGMVVDRCGCS
notes: also called BMP11
In assay [2], B4 displayed a Kd of 0.028 nM, a koff of 0.00072 s⁻¹ and a kon of 2.6e+07 M⁻¹ s⁻¹. In assay [1], the equilibrium dissociation constant (Kd) worked out at 0.002 nM, the dissociation rate constant (koff) was 0.00011 s⁻¹ and the on-rate constant (kon) came to 5e+07 M⁻¹ s⁻¹.

B5: BMP10 (ligand, UniProt O95393 317-424, looked up)
chain: NAKGNYCKRTPLYIDFKEIGWDSWIIAPPGYEAYECRGVCNYPLAEHLTPTKHAIIQALVHLKNSQKASKACCVPTKLEPISILYLDKGVVTYKFKYEGMAVSECGCR
As to B5, in assay [2], binding was put at a Kd of 0.086 nM and the kon came to 2.9e+07 M⁻¹ s⁻¹. In assay [1], this molecule yielded a dissociation constant Kd of 0.011 nM, a koff of 0.00026 s⁻¹ and a kon of 2.3e+07 M⁻¹ s⁻¹.
